# Experimental data from patent US10253089B2, “Matrix metalloproteinase cleavable protein polymers for cancer gene therapy” (The University of Utah Research Foundation, priority 2012, dated 2019).
# T1: MMP-2 (Homo sapiens, UniProt P08253)
# T1 sequence (P08253 110-660): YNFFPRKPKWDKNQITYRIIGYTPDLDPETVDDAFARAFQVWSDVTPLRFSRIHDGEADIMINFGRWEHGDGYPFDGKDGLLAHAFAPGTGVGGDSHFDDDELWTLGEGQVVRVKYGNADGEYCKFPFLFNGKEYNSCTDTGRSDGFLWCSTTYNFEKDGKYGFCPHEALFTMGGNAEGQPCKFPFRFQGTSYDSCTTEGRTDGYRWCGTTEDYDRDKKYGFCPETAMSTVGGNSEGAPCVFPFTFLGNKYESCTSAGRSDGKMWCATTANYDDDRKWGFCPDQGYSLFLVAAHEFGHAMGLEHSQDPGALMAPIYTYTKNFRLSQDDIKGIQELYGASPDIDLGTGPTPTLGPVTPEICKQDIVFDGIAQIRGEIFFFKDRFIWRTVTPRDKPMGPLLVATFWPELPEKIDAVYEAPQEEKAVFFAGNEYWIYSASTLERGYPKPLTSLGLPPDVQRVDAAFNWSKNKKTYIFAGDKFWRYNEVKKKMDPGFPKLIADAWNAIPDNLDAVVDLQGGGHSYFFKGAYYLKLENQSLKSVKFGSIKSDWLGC
# B1: SELP815K: silk-elastin-like protein polymer, longer silk units, fifteen elastin units, lysine elastin unit; monomer repeated 6 times (SEQ ID NO. 21) (protein)
# chain: MDPVVLQRRDWENPGVTQLNRLAAHPPFASDPMGAGSGAGAGSGAGAGSGVGVPGVGVPGVGVPGVGVPGKGVPGVGVPGVGVPGVGVPGVGVPGVGVPGVGVPGVGVPGVGVPGVGVPGVGVPGVGVPGAGAGSGAGAGSGAGAGSGAGAGSGAGAGSGAGAGAGSGAGAGSGAGAGSGVGVPGVGVPGVGVPGVGVPGKGVPGVGVPGVGVPGVGVPGVGVPGVGVPGVGVPGVGVPGVGVPGVGVPGVGVPGVGVPGAGAGSGAGAGSGAGAGSGAGAGSGAGAGSGAGAGAGSGAGAGSGAGAGSGVGVPGVGVPGVGVPGVGVPGKGVPGVGVPGVGVPGVGVPGVGVPGVGVPGVGVPGVGVPGVGVPGVGVPGVGVPGVGVPGAGAGSGAGAGSGAGAGSGAGAGSGAGAGSGAGAGAGSGAGAGSGAGAGSGVGVPGVGVPGVGVPGVGVPGKGVPGVGVPGVGVPGVGVPGVGVPGVGVPGVGVPGVGVPGVGVPGVGVPGVGVPGVGVPGAGAGSGAGAGSGAGAGSGAGAGSGAGAGSGAGAGAGSGAGAGSGAGAGSGVGVPGVGVPGVGVPGVGVPGKGVPGVGVPGVGVPGVGVPGVGVPGVGVPGVGVPGVGVPGVGVPGVGVPGVGVPGVGVPGAGAGSGAGAGSGAGAGSGAGAGSGAGAGSGAGAGAGSGAGAGSGAGAGSGVGVPGVGVPGVGVPGVGVPGKGVPGVGVPGVGVPGVGVPGVGVPGVGVPGVGVPGVGVPGVGVPGVGVPGVGVPGVGVPGAGAGSGAGAGSGAGAGSGAGAGSGAGAGSGAGAMDPGRYQDLRSHHHHHH
# modifications: monomer repeated 6 times; Hybrid of Homo sapein and Bombyx mori
# How the values were obtained:
# MMP-2 = target: T1, MMP-2; assay: Hydrogel protein loss in the presence of MMP-2; format: biochemical; conditions: 10 wt % hydrogel, MMP-2 10 nM, two weeks
# Procedure: The properties of hydrogels formed from SELPs are strongly dependent on the shear applied to liquid solutions of polymer prior to gelation. SELPs solubilized in phosphate buffered saline were loaded into a 1 ml luer-lock syringe connected at the hub to another 1 ml luer-lock syringe via two 27G needles, joined by a section of 0.0155″ HPLC tubing. The SELP solution was passed through this device at maximum hand pressure for five full bidirectional cycles, at which point it was used for studies.
# Hydrogels were characterized for their sensitivity to MMP degradation in the context of protein loss from the gel, changes in mechanical properties, and release of model 100 nm fluorescent nanoparticles. […] Syringes were sealed with Parafilm and allowed to gel upright overnight at 37° C. […]
# Protein loss was quantified using a Modified Lowry Assay Kit, and using known SELP solutions for the standard curve instead of the supplied bovine serum albumin, as SELP contains few Lowry-reactive amino acids. The mechanical properties of SELPs were evaluated in cyclic compression at 1 Hz and 1% strain, with ˜10 grams of preloading applied for 10 minutes to eliminate stress relaxation. Stress was measured using a 2 lb load cell. Release was quantified by measuring the fluorescence of release samples with an excitation/emission of 260/515. […]
# [1] = test system: JHU-022 head and neck cancer xenografts; assay: Quantitative viral gene expression (β-gal) in vivo, tumor and liver; set-up: species or system athymic nude (nu/nu) mice; conditions: 4 wt %
# Procedure: Head and neck cancer xenografts were established by subcutaneously injecting 2×10^6 JHU-022 cells suspended in 200 μl Phosphate Buffer Saline (PBS) bilaterally in the flank of athymic nude (nu/nu) mice. Tumors were allowed to grow for two weeks to reach an average diameter of 7 mm. […] Virus-polymer solutions were prepared by thawing SELP and virus stocks and mixing them gently with physiological saline. Mice were anesthetized using 4 wt % isofluorane mixed with oxygen, and intratumorally injected with 25 μl of the polymer-virus solutions using a Hamilton syringe. Mice were euthanized on days 7, 14, and 21 and tumor and liver tissue were isolated. CPRG β-gal colorimetric assays were performed as described previously in the scientific literature. […] Recovered tissue lysates were then centrifuged for 45 minutes at 14,000 rpm and, subsequently, upper aqueous layers were used for β-gal quantification. […]
# Polymer structures and compositions that formed robust hydrogels were selected for matrix-mediated delivery of reporter genes in a murine model of HNSCC. […] Animals were sacrificed at days 7, 14, and 21 for analysis of gene expression, and analyzed using a colorimetric tissue lysate assay for β-galactosidase. […]
molecule,measurement,setting,value
B1,higher protein loss compared to control,MMP-2,statistically insignificant
same,tumor transfection (β-gal) compared to free virus,"[1]; Ad.CMV.LacZ 5×10^8 PFU intratumoral, week one",more than 50 fold
same,difference in tumor vs. liver transfection,"[1]; Ad.CMV.LacZ, week two",55 fold
